Common to all, as to assay: ITC
The target of experiment [1] is SOCS3 box/elonginBC ternary complex (murine | human | mouse, UniProt Q15370 1-118; P83940 17-112).
The target of experiment [2] is SOCS2 box/elonginBC ternary complex (murine | human | mouse, UniProt Q15370 1-118; P83940 17-112).
The target in experiment [3] is SOCS1 box/elonginBC ternary complex (murine | human | mouse, UniProt Q15370 1-118; P83940 17-112).
Experiment [4] addresses SOCS6 box/elonginBC ternary complex (murine | human | mouse, UniProt Q15370 1-118; P83940 17-112).
In experiment [5] the target is SOCS4 box/elonginBC ternary complex (murine | human | mouse, UniProt Q15370 1-118; P83940 17-112).
The target in experiment [6] is SOCS5 box/elonginBC ternary complex (murine | human | mouse, UniProt Q15370 1-118; P83940 17-112).
Experiment [7] concerns the target CIS box/elonginBC ternary complex (murine | human | mouse, UniProt Q15370 1-118; P83940 17-112).
The target in experiment [8] is SOCS7 box/elonginBC ternary complex (murine | human | mouse, UniProt Q15370 1-118; P83940 17-112).

B1: GST-Cullin5 (NTD), N-terminal domain of murine cullin5 (Met1-Leu385) with V341R and L345D (domain or fragment)
chain: MATSNLLKNKGSLQFEDKWDFMHPIVLKLLRQESVTKQQWFDLFSDVHAVCLWDDKGSSKIHQALKEDILEFIKQAQARVLSHQDDTALLKAYIVEWRKFFTQCDILPKPFCQLEVTLLGKQSSNKKSNMEDSIVRKLMLDTWNESIFSNIKNRLQDSAMKLVHAERLGEAFDSQLVIGVRESYVNLCSNPEDKLQIYRDNFEKAYLDSTERFYRTQAPSYLQQNGVQNYMKYADAKLKEEEKRALRYLETRRECNSVEALMECCVNALVTSFKETILAECQGMIKRNETEKLHLMFSLMDKVPNGIEPMLKDLEEHIISAGLADMVAAAETITTDSEKYREQLDTLFNRFSKLVKEAFQDDPRFLTARDKAYKAVVNDATIFKL
As for B1, the “stoichiometry N” value in experiment [1], in experiment [2], in experiment [3], in experiment [4], in experiment [5] and in experiment [6] was roughly 1 each time. In addition, the “stoichiometry N” value in experiment [7] and in experiment [8] was roughly 1 throughout. Further, the dissociation constant Kd in experiment [2] is roughly 10 nM; in experiment [3] it was 1000 nM; in experiment [4] it was roughly 10 nM; in experiment [5], roughly 10 nM; in experiment [6], roughly 10 nM; in experiment [7], roughly 10 nM. Moreover, the Kd in experiment [8] is roughly 10 nM.

A word on the stoichiometry N: it is a count of units in the complex or per binding partner. One may read the Kd as the equilibrium constant for the complex coming apart.

The record behind these values is article PMC2720833 (Journal of molecular biology, 2009).
